This is an account of results in patent US20200079850A1 (SUTRO BIOPHARMA, published 2020).

Residue numbers refer to the chain shown, from its start.

Assay [1] concerns the target T1, recombinant human LAG3 protein (rhLAG3), HIS-tagged (ACRO) or biotinylated (R&D Cat #2319-C3) (human, UniProt P18627 23-450, biotinylated in part of the assays).
T1 sequence: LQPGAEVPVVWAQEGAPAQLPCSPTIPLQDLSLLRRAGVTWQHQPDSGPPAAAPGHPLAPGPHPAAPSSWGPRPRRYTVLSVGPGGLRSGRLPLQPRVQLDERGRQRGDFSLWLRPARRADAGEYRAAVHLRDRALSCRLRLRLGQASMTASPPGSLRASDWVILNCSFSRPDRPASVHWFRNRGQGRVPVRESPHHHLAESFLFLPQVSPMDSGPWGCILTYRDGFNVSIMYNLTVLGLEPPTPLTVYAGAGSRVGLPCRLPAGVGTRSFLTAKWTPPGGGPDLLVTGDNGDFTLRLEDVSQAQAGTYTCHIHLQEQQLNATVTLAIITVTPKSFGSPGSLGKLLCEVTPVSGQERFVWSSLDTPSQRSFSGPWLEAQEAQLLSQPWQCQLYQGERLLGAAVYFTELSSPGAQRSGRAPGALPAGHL
In words: flow cytometry competition, rhLAG3 binding to Daudi cells; competitor MHCII. As to the method: DAUDI cells express high levels of Major Histocompatibility Class II (MHCII) molecules, a natural ligand for LAG3, on the cell surface. DAUDI cells were used to screen for antibodies that inhibit binding of HIS-tagged (ACRO) or biotinylated recombinant human LAG3 protein (rhLAG3) to MHCII expressed on the cell surface.
DAUDI cells were cultured in RPMI w/10% FCS Pen/Strep and Gln and split every 3-4 days at 10^5 cells/ml. Cells were washed 2× with FACS buffer (PBS w/2% FCS), […] at a final concentration of 1×10⁶ cells/ml and seeded at 100 μl per well on 96 well polypropylene plates. Plates were spun at 1500 rpm for 5 minutes and cell pellets were suspended in 50 μl FACS buffer containing 8 point 1:3 dilutions (2× concentrated) of anti-LAG3 antibody variants, starting from high concentration of −600 nM. 50 μl FACS buffer containing 10-20 μg/ml of the HIS-tagged rhLAG3 protein or 40 μg/ml of the biotinylated rhLAG3 protein were then added to the cells. Cell were then incubated in ice for 1 hr, washed with FACS buffer and incubated for 1 hr in ice with 50 μl FACS buffer containing 2 μg/ml R-Phycoerythrin-conjugated Streptavidin (eBiosciences) or 1 μg/ml R-Phycoerythrin-conjugated anti-HIS IgG (Abcam). Cell were washed 2× with FACS buffer and fixed for 10 minutes in 200 μl PBS w/2% PFA prior to acquisition.

Assay [2] has as its target T2, human LAG3-Fc (R&D Systems #2319-L3) (human, UniProt P18627 23-450).
T2 construct: Bought protein; also called Human LAG3 (Biacore)
T2 sequence: T1 sequence
In words: SPR (Biacore), antibody captured by anti-Flag, LAG3-Fc as analyte, 25 C. As to the method:
Anti-Flag M2 IgG (Sigma-Aldrich # F9291) was immobilized onto a CMS chip (GE Life Sciences) using amine coupling chemistry (from Amine Coupling Kit, GE Life Sciences). The immobilization steps were carried out at a flow rate of 25 μL/min in 1×HBS-EP+ buffer (GE Life Sciences; 10×Stock diluted before use). The sensor surfaces were activated for 7 min with a mixture of NHS (0.05 M) and EDC (0.2 M). The Anti-Flag M2 IgG was injected over all 4 flow cells at a concentration of 25 μg/mL in 10 mM sodium acetate, pH 4.5, for 7 min. Ethanolamine (1 M, pH 8.5) was injected for 7 min to block any remaining activated groups. An average of 12,000 response units (RU) of capture antibody was immobilized on each flow cell.
Off-rate and kinetic binding experiments were performed at 25° C. using 1×HBS-EP+buffer. Test and control antibodies were injected over the Anti-Flag surface at concentrations of 5-10 μg/mL for 12 seconds at a flow rate of 10 μL/min on flow cells 2, 3 and 4, followed by a buffer wash for 30 seconds at the same flow rate. Kinetic characterization of antibody samples was carried out with a single concentration of antigen (for off-rate ranking) or a dilution series of antigen (for kinetic characterization) and 1 injection of 0 nM antigen. After capturing ligand (antibody) on the anti-Flag surface, the analyte (human LAG3-Fc, R&D Systems #2319-L3; or cynomolgus LAG3-Fc, accession # NC 022282.1) was bound at 50, 25, 12.5, 6.25, and 0 nM for 180 seconds, followed by a 600 second dissociation phase at a flow rate of 50 μl/min Between each ligand capture and analyte binding cycle, regeneration was carried out using 2 injections of 10 mM glycine pH 2.0 for 30 seconds at 30 μL/min, followed by a 30 second buffer wash step.
The data were fit with the Biacore T200 Evaluation software, using a 1:1 Langmuir binding model. KD (affinity, nM) was determined as a ratio of the kinetic rate constants calculated from the fits of the association and dissociation phases.

Assay [3] concerns the target T3, human LAG3 expressed on the cell surface (CHO-LAG3, 293T-LAG3 cells) (human, UniProt P18627 23-525).
T3 construct: Stably transfected CHO or HEK293T cells; also called Human LAG3 (CHO); Human LAG3 (293T)
T3 sequence: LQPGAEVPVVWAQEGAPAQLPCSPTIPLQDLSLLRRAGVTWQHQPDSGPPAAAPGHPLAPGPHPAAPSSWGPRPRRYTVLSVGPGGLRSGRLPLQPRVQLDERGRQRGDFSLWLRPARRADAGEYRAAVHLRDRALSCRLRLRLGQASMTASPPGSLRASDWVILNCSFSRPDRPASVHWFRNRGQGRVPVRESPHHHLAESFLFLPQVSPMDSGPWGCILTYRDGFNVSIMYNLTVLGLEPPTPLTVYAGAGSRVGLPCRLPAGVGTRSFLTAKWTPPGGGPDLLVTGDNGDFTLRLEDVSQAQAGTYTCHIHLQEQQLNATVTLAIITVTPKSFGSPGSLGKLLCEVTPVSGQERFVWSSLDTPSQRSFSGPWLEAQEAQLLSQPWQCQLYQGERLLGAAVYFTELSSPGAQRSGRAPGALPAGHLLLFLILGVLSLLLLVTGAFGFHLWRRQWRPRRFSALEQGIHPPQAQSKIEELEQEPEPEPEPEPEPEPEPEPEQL
In words: flow cytometry, 293T cells expressing human LAG3. The method, then: LAG3 antibody variants were tested in a fluorescence-activated cell sorting (FACS) cell-binding assay. Chinese Hamster Ovary (CHO) cells or HEK293T cells stably expressing the human target molecule LAG3 on the cell surface (CHO-LAG3, 293T-LAG3) were used to screen for cell binders by flow cytometry. Parental CHO or 293T cells were used as a negative control to determine background-binding levels. Cells were cultured in RPMI with 10% FCS Penicillin/Streptomycin (or Pen/Strep) and glutamine (or Gln) and split every 3-4 days at 10⁵ cells/ml.
A mix of parental CHO cells and CHO-LAG3 cells (or 293T and 293T-LAG3 cells) was prepared as follows: Parental CHO cells were washed 2× in PBS then incubated in PBS containing 1 nM CellTrace™ Oregon Green488® (Life Technologies) at 37° C. for 30 minutes. […] Parental CHO cells and CHO-LAG3 cells were then mixed to obtain a 1:1 cell suspension and seeded at 100 μl per well on 96 well polypropylene plates. Plates were spun at 1500 rpm for 5 minutes and cell pellets were suspended in 50 μl FACS buffer containing 6-12 point dilutions of anti-LAG3 variants starting from concentrations of ˜100-200 nM antibody, dispensed using BioMekFX (Beckman Coulter). Cells were then incubated on ice for 1 hr, washed with FACS buffer and incubated for 1 hr on ice with 50 μl FACS buffer containing 2.5 μg/ml R-Phycoerythrin-conjugated Goat Anti-Human IgG (Jackson ImmunoResearch) or AF647-conjugated Goat Anti-mouse IgG (Life Technologies) dispensed using BioMekFX (Beckman Coulter). Cells were then washed 2× with FACS buffer and fixed for 10 minutes in 200 μl PBS with 2% PFA prior to fluorescence detection. Samples were acquired using a Beckton Dickinson LSRII FACS. Mean Fluorescence Intensity of LAG3 antibody binding was analyzed using Tree Star, Inc. FlowJo® software.

B1: SRP1496-B08 (antibody, V domains shown)
VH: EVQLVESGGGLVQPGGSLRLSCAASGFNINDTYIHWVRQAPGKGLEWVGIIDPYDGATDYADSVKGRFTISADTSKNTAYLQMNSLRAEDTAVYYCAREIFGFYWNPFDYWGQGTLVTVSS
VL: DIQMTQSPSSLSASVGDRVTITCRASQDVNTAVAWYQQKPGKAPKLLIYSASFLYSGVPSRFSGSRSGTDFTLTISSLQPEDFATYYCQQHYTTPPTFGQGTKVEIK
In the case of B1, the 50% inhibitory concentration (IC50) in assay [1] is 28.6 nM. In assay [2], this molecule came in with a Kd of 21.3 nM, a koff of 0.0279 s⁻¹ and a kon of 1.31e+06 M⁻¹ s⁻¹. In addition, the Kd in assay [3] was determined as 39.4 nM.

B2: SRP1496-A04 (antibody, V domains shown)
VH: B1 VH
VL: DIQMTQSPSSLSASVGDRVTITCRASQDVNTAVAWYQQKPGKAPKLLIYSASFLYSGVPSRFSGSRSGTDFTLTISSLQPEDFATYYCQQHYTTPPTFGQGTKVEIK
B2: in assay [1], the IC50 came out at 55.8 nM. Further, in assay [2], the Kd came to 15.2 nM, the koff was 0.0196 s⁻¹ and the kon is 1.29e+06 M⁻¹ s⁻¹. Further, in assay [3], the Kd came out at 35 nM.

B3: SRP1496-A03 (antibody, V domains shown)
VH: B1 VH
VL: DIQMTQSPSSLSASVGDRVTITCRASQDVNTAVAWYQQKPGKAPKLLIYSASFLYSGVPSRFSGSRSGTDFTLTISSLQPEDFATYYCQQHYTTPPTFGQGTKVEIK
Consider B3, for which the IC50 in assay [1] turned out to be 41.3 nM. In addition, in assay [2], binding was characterised by a dissociation constant (Kd) of 18.9 nM, the koff came to 0.0234 s⁻¹ and the kon was determined as 1.24e+06 M⁻¹ s⁻¹. In assay [3], this molecule showed a Kd of 40.6 nM.

B4: SRP1648-B07 (antibody, V domains shown)
VH: B1 VH with N30A, Y33F, A57D, F101L
VL: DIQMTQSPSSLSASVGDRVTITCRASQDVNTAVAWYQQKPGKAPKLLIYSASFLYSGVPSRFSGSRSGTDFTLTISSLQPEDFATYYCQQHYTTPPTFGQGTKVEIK
notes: IgG scaffold with human constant domains
Turning to B4, in assay [1], the IC50 was found to be 4.5 nM. In assay [2], this molecule displayed a Kd of 2.46 nM, a koff of 0.0275 s⁻¹ and a kon of 1.12e+07 M⁻¹ s⁻¹.

B5: SRP1648-E02 (antibody, V domains shown)
VH: B1 VH with T32N, A57F, D59A, I100S, F101I, W105L
VL: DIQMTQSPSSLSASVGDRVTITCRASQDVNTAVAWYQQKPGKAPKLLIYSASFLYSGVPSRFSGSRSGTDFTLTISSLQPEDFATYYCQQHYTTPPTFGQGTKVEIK
For B5, the IC50 in assay [1] was 4.1 nM. In assay [2], this molecule returned a Kd of 2.27 nM, a koff of 0.122 s⁻¹ and a kon of 5.35e+07 M⁻¹ s⁻¹.

B6: SRP1627-A11 (scFv, V domains shown)
VH: QVQLVQSGAEVKKPGSSVKVSCKASGFNINDYFMHWVRQAPGQGLEWIARIDPWNGDTEYAPKFQGRVTITADESTSTAYMELSSLRSEDTAVYYCGMSDALDYWGQGTLVTVSS
VL: DVVMTQSPLSLPVTLGQPASISCKSSQSLLDSDGKTYLNWFQQRPGQSPRRLIYLVSKLDSGVPDRFSGSGSGTDFTLKISRVEAEDVGVYYCWHGINFPQTFGQGTKVEIK
With B6, the IC50 in assay [1] came out at 1.6 nM. For the same molecule, in assay [2], the affinity, expressed as Kd, was 13.5 nM; the koff was 0.00422 s⁻¹; the kon amounted to 312000 M⁻¹ s⁻¹. The molecule also gave a Kd in assay [3] of 0.74 nM.

B7: SRP1627-B01 (scFv, V domains shown)
VH: B6 VH with N30T, Y32L, F33Y, V68A, G97I, M98A, D100E, A101M, L102V
VL: B6 VL with W94S, H95T, G96Y, I97S, N98H
Take B7: in assay [1], the IC50 was 0.4 nM. In assay [2], this molecule showed a Kd of 14.7 nM, a koff of 0.0152 s⁻¹ and a kon of 1.04e+06 M⁻¹ s⁻¹. The same molecule had a Kd in assay [3] of 0.19 nM.

B8: h5G11-2 (scFv, V domains shown)
VH: B6 VH with N30K, F33Y, R50W, W54E, G97N, M98A, S99P
VL: B6 VL with H95Q, I97S, N98H
For B8, in assay [2], the Kd was 863 nM, the koff came to 0.0023 s⁻¹ and the kon was 2670 M⁻¹ s⁻¹. In addition, the Kd in assay [3] worked out at 78 nM.

B9: SRP1627-A02 (scFv, V domains shown)
VH: B6 VH
VL: B6 VL with W94S, I97N, N98P, F99V
Consider B9, for which, in assay [1], the IC50 turned out to be 1.7 nM. In assay [2], the Kd came out at 43.3 nM, the koff amounted to 0.071 s⁻¹ and the kon is 1.64e+06 M⁻¹ s⁻¹. Further, the Kd in assay [3] was 0.97 nM.
